According to article PMC9992173, “Mapping of the extracellular RBP4 ligand binding domain on the RBPR2 receptor for Vitamin A transport” (Frontiers in Cell and Developmental Biology, 2023):

Target: T1, Recombinant mouse RBP4 with 6XHis Tag (mouse, UniProt Q00724 19-201)
T1 construct: Amine-coupled to a CM5 chip for SPR; also called msRBP4; source: E. coli expression system, purified (nickel NTA column)
Test: SPR; mouse RBP4 amine-coupled to a CM5 chip (target 1,200 RU), Biacore S200; peptides as analytes, 0.8-26.6 uM; running buffer PBST (0.05% Tween20); 25 C; contact 120 s, dissociation 300 s; Kd from the site-specific binding fit Y=(Bmax*X)/(Kd+X)
Details: both partners purified

Kd	Binder
25.4 µM	HVRDKLDMFEDKLESYLTHMNETGTLTPIILQVKELISVTKG (mouse RBPR2 (STRA6like) peptide of 42 residues with the SYL residues S294, Y295, L296; also called WT-msRBPR2 peptide; mouse RBPR2 peptide; source: synthetic peptide (Biomatik Corporation)) [msRbpr2 (42) peptide]
33.2 µM	DKLDSLKDSLEQIALSCNQTESVFTYLIPSINEF (zebrafish RBPR2 peptide of 34 residues; also called zebrafish RBPR2 peptide; source: synthetic peptide (Biomatik Corporation)) [zebRBPR2 (34) peptide]
26.7 µM	SVVPTVQKVRAGINTDVSYLLAGFGIVLSEDRQEVVELVK (mouse STRA6 peptide of 40 residues with Tyr336, Gly340 and Gly342; also called msSTRA6 peptide; mouse STRA6 peptide; source: synthetic peptide (Biomatik Corporation)) [msStra6 (40) peptide]
